# ± gives the half width of the 95% confidence interval.
# Tests used:
# [1] = folding stability dG unfold from trypsin proteolysis; higher = more stable
# Method in brief: (§1)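 Designed mini-proteins (under 80 residues, no cysteine) in a PA-tagged cDNA display construct were digested with trypsin and chymotrypsin. Each protease was used at 11 concentrations (threefold dilutions) plus a no-protease condition, followed by sequencing. K50 was inferred by Bayesian fitting of sequencing counts, and unfolding free energy was derived against a sequence-predicted unfolded-state K50 and a shared folded-state K50, per protease or combined. Only designs with AlphaFold2 dimer inter-PAE above 15 were kept.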
# [2] = folding stability dG unfold (combined trypsin and chymotrypsin); higher = more stable
# Method in brief: as §1
# [3] = folding stability dG unfold from chymotrypsin proteolysis; higher = more stable
# Method in brief: as §1
Sequence,folding stability dG unfold [1] [kcal/mol],folding stability dG unfold [2] [kcal/mol],folding stability dG unfold [3] [kcal/mol]
SAKKVIIEVKSLEELLKAAKEAAKKGEKVEVLVKLKDGYYVKITMEFDKKTKKIKIKKIEIKPIKKEDLSAG [r14_455_TrROS_Hall],2.51 ± 0.12,2.46 ± 0.38,2.75 ± 0.21
SAGGSAGGQEEEAEALAKEVEAPAREALPGTEVTVTVTVTRREDGSLEVDVTIEGDFALPAALLSAGGSAGG [r6_999_JUSTAS],0.813 ± 0.065,0.783 ± 0.24,0.636 ± 0.067
SAGGSIPPGARVETLEVVTSSSSDGTVTTTTLTRVTSPEDSVSERTRTTTDPVVPPPATPTNPVSLASAGGS [r8_90_JUSTAS],-0.0164 ± 0.079,0.507 ± 0.053,0.804 ± 0.06
SAGGPDELELVIVFPAEALGTGEGGEPYTAEDIAEAIKKELPKDEVEVEIAEIDEETGEIVVTVKVPSAGGS [r16_284_TrMRF],0.747 ± 0.13,0.748 ± 0.23,0.449 ± 0.077
SAGMKPGEPITLVLPDGVVIPIKINPNGGVEIDDIEPPPDGTYNMDARHPNNGKEITLNIKLPPGFQILSAG [r5_394_TrROS],1.93 ± 0.13,0.95 ± 0.43,0.239 ± 0.77
SAGGSPPFRIKIDEIEILPNGIIQVTFKIDNGWPMTILIQMDPDGKVTIEIQFPGNGQPFEFELPISAGGSA [r2_361_TrROS],2.56 ± 0.14,3.27 ± 0.23,3.52 ± 0.07
SADPGDTVELEFWLPPGMNPEFVEQMEDEIRNILRDLGLEVDVKVEPDPDNGYVPVTITITKEQLKDLFSAG [r14_602_TrROS],1.93 ± 0.12,1.82 ± 0.18,1.74 ± 0.1
SAGGSAIDPRLLKLPKVKVEILSVEPVTGEDDKPFFVAKVKTDLEPGFYAYIILDPETGKIVKVFDSAGGSA [r15_66_TrMRF],1.19 ± 0.038,1.4 ± 0.072,1.57 ± 0.093
SMKITTDPVNKTISATFPPGTDPLAETQKIVDEVKKKENSGDITITFSTGNTTINYTLGTNTVTTTPAGTSA [r9_224_JUSTAS],-0.0577 ± 0.063,-0.0954 ± 0.096,-0.35 ± 0.19
SAGGSAGGSAGGGPDATPVTTTYVDLNLTPVSTETDPETGAVTVTYKLPGETITVTLPASAGGSAGGSAGGS [r10_962_JUSTAS],-0.629 ± 0.13,0.573 ± 0.22,1.11 ± 0.42
SAGGSAGGSAAPTNPVEITLKRPDGTPVKATITFYPDGVKVTVEDGDTTTTSWLSPEEITLSAGGSAGGSAG [r3_373_JUSTAS],2.09 ± 0.037,1.89 ± 0.03,1.722 ± 0.015
SAGGSAGGKKIEMKIIKNEDGTKLIVFKSKEEAEEALKKAGYEVKIVSVNEEKGYVVIEIRKKKSAGGSAGG [r6_510_TrROS_Hall],1.17 ± 0.043,1.9 ± 0.072,2.21 ± 0.04
SAGGGMSVSELKKFFPNLKPGATFVLKDPNSDRTGTGTLLSDGTIKVQLPGSEVTVPDDTLVVSISASAGGS [r8_162_JUSTAS],0.585 ± 0.043,0.321 ± 0.13,-0.237 ± 0.27
SAGGSAGGSMPVKVITTISRETVPLPNGDPGARYTVTTTVTTDSTVVSTTTTTFSSEAELAAASAGGSAGGS [r12_461_JUSTAS],1.08 ± 0.035,0.894 ± 0.084,0.854 ± 0.12
SAGGSAGGSAGKPKKKPPKPKIETKTITVTITNKDGSKTTVTATIVRNKDTNELFIRISSSAGGSAGGSAGG [r11_1024_TrROS_Hall],3.07 ± 0.16,2.98 ± 0.22,3.13 ± 0.12
SIRGMPPEVVLYIIRFFAREQKNKGMPPDDRPIEINIMMPNPEARKDAKKEIKEENPGIKDVKIEVMPPNSA [r9_341_TrROS],2.2 ± 0.11,2.61 ± 0.56,3.1 ± 0.17
SAGGSAGGSAGGIGEGTPIERLIEGKPIPFYVDESTGKAYYTLPEDKKIETTIEDPEKVSAGGSAGGSAGGS [r10_1185_TrMRF],-0.377 ± 0.19,0.202 ± 0.15,0.442 ± 0.22

# — the supplement of paper PMC12764529
